For this experiment, the target named is leucine zipper domain of the transcription factor GCN4 from Saccharomyces cerevisiae (fusions with T18 and T25) (Saccharomyces cerevisiae). Put plainly: two-hybrid; bacterial two-hybrid (BACTH), T18 and T25 fusions co-overexpressed in adenylate-cyclase-deficient E. coli BTH-101, LB pH 7, aerobic, OD600 ~0.6; ß-galactosidase activity (ONPG) in Miller units, three biological replicates; background with empty vectors about 400 MU.

Substance “leucine zipper domain of the transcription factor GCN4 from Saccharomyces cerevisiae (fusions with T18 and T25) (domain or fragment)” showed a ß-galactosidase activity of 1200 MU.

(Values after paper PMC5604497.)
